Experimental data taken from patent US20250290928A1, “METHOD, KIT AND DEVICE FOR DETECTING EXTRACELLULAR VESICLES” (priority 2022, published 2025).
Several values for one entry are separate records, joined by “and”; a condition that tells them apart may be missing. Equal entries are not always repeated. *: point of attachment. 5FAM = O=C1OC2(c3ccc(O)cc3Oc3cc(O)ccc32)c2ccc(C(=O)*)cc21; TQ2 = quencher

Experiments:
Type in all cases: biochemical
[1] = molecular target: T1, MMP14 in the MDA-MB-231-derived extracellular vesicles (Homo sapiens, UniProt P50281); assay: Digital detection through MMP14 activity of MDA-MB-231-derived extracellular vesicles captured on anti-CD9/CD63/CD81 antibody-immobilized particles; conditions: for Expected value λ / Number of positives / Positive ratio: 5 h; for Expected value λ (MMP14) / Number of positives (MMP14): Example 33, 30° C., 4 h
T1 construct: in terms of intact MMP14 with a molecular weight of 70 kDa
Protocol: (§1) The concentration of the solution is 10 μg/mL.
For detection of MMP14 activity, 1 mM Custom #2 was diluted with the buffer (4) to prepare a MMP14 detection solution containing 10 μM Custom #2.
The number of the particles was increased 4-fold, and a reaction was allowed to proceed. However, the number and concentration of the particles used to fill the wells are finally the same as those in other Examples.
The concentration of the solution is 10 μg/mL. The solution was subjected to 3-fold serial dilution to prepare standard samples with seven concentrations.
For detection of MMP14 activity, 1 mM Custom #2 and a 100 µM resorufin β-D-galactopyranoside solution were diluted with the buffer (4) to prepare a MMP14 and CD9/CD63/CD81 cocktail detection solution (1) containing 10 μM Custom #2 and 5 μM resorufin β-D-galactopyranoside. In addition, the solution was diluted 2-fold with the buffer (4) to prepare a detection solution (2). Nonfluorescent resorufin β-D-galactopyranoside is degraded by β-galactosidase to produce fluorescent resorufin. In this case, the maximum wavelengths of excitation and fluorescence of resorufin are 570 nm and 585 nm, respectively.
In addition, an antibody-immobilized particle solution was prepared and stored at 4° C. until use, in the same manner as in Example 28 except that Magnosphere MS300/Carboxyl (manufactured by JSR Corporation) (hereinafter abbreviated as “MS300C”) was used as magnetic particles.
For detection of MMP14 activity, 1 mM Custom #2 was diluted with the buffer (4) to prepare a MMP14 detection solution containing 5 μM Custom #2. In addition, 1 mM Custom #2T was diluted with the buffer (4) to prepare a MMP14 detection solution containing 2.5 μM Custom #2T.
An antibody-immobilized particle solution was prepared and stored at 4° C. until use, in the same manner as in Example 28 except that: MS300C was used as magnetic particles; and blocking treatment was performed at 4° C. or room temperature through use of Blockmaster CE210 or CE510 (manufactured by Medical & Biological Laboratories Co., Ltd.) instead of Bead Blocking Buffer (manufactured by Quanterix Corporation).
For detection of MMP14 activity, 1 mM Custom #2 and 1 mM Custom #2T were diluted with the buffer (4) to prepare a MMP14 detection solution containing 5 μM Custom #2 and 2.5 μM Custom #2T serving as the reporter molecules in the same system. […]

[2] = molecular target: T2, MMP14 in the A549-derived extracellular vesicles (Homo sapiens, UniProt P50281); assay: Digital detection of A549-derived extracellular vesicles through MMP14 activity in wells (Simoa Discs)
T2 construct: host or cells: A549 (purified exosomes)
Protocol: The concentration of the solution is 20 μg/mL. […] The concentration of the solution was set to x1, and 10-fold serial dilution was performed to prepare standard samples with five concentrations.
as §1

[3] = molecular target: T1, MMP14 in the MDA-MB-231-derived extracellular vesicles; assay: Digital detection through MMP14 activity of MDA-MB-231-derived extracellular vesicles captured on Tim4-immobilized magnetic particles; conditions: Table 56, MB231 Present, 24 hours at 23° C.
[4] = Example 28, 37° C., EV 0 (BG, free of extracellular vesicles)
[5] = Example 28, 37° C., EV 1 a.u. (sample 10 μg/mL)
[6] = Example 31, 4-fold number of particles, 37° C., EV 1 a.u., single image
[7] = Example 31, 37° C., EV 1 a.u., sum of the two images
[8] = Particle MS300C, MB231 Absent, 24 hours of reaction
[9] = Particle MS300C, MB231 Present, 24 hours of reaction
[10] = Particle Simoa, MB231 Absent, 24 hours of reaction
[11] = Particle Simoa, MB231 Present, 24 hours of reaction
[12] = Example 27, 23° C., 5 h, EV 0 (free of extracellular vesicles)
[13] = Example 27, 23° C., 5 h, EV 0.01 a.u.
[14] = Example 27, 23° C., 5 h, EV 0.1 a.u.
[15] = Example 27, reporter 10 μM, 23° C., 5 h, EV 1 a.u. (x1=5 μg/mL)
[16] = Example 21, 37° C., 5 h, BG, EV 0 (free of extracellular vesicles, pseudopositive)
[17] = Example 21, 37° C., 5 h, ΔBG Absent, EV 0.0001 a.u.
[18] = Example 21, 37° C., 5 h, ΔBG Absent, EV 0.001 a.u.
[19] = Example 21, 37° C., 5 h, ΔBG Absent, EV 0.01 a.u.
[20] = Example 21, 37° C., 5 h, ΔBG Absent, EV 0.1 a.u.
[21] = Example 21, 37° C., 5 h, ΔBG Absent, EV 1 a.u. (x1=10 μg/mL)
[22] = Example 21, 37° C., 5 h, ΔBG Present (positives at EV 0 subtracted), EV 1 a.u.
[23] = Example 21, 37° C., 5 h, ΔBG Present, EV 0.0001 a.u.
[24] = Example 21, 37° C., 5 h, ΔBG Present, EV 0.001 a.u.
[25] = Example 21, 37° C., 5 h, ΔBG Present, EV 0.01 a.u.
[26] = Example 21, 37° C., 5 h, ΔBG Present, EV 0.1 a.u.

[5-FAM]GGPLGLAGGK(TQ2)[OH] (5FAM-GGPLGLAGGK(TQ2)-OH) [Custom #2]
Extracellular vesicle concentration ([1]; Example 28, 1 μg of protein, 5.0×10^5 particles): 8.0×10^4 extracellular vesicles/μg of protein | Expected value λ [1, 4]: 0.000493 | Number of positives [1, 4]: 1 | Positive ratio [1, 4]: 0.000493 | Expected value λ [1, 5]: 0.1599 | Number of positives [1, 5]: 338 | Positive ratio [1, 5]: 0.1478 | expected value Δλ per particle (value obtained by subtracting BG) ([1]; Example 28, 5 h): 0.1594 | Extracellular vesicle concentration ([1]; Example 31, 0.5 μg of protein, 2.0×10^6 particles): 1.8×10^5 extracellular vesicles/μg of protein | Expected value λ [1, 6]: 0.04458 and 0.04511 | Number of positives [1, 6]: 402 and 410 | Positive ratio [1, 6]: 0.0436 and 0.04411 | Expected value λ [1, 7]: 0.04484 | Number of positives [1, 7]: 812 | Positive ratio [1, 7]: 0.04386 | expected value Δλ per particle (value obtained by subtracting BG) ([1]; Example 31, 5 h, sum of the two images): 0.04435 | Expected value λ (MMP14) ([1]; EV 0 (BG)): 0.00428 | Number of positives (MMP14) ([1]; EV 0 (BG)): 9 | Expected value λ (MMP14) ([1]; EV X1 (sample 10 μg/mL)): 0.139 | Number of positives (MMP14) ([1]; EV X1 (sample 10 μg/mL)): 298 | Expected value λ (MMP14) ([1]; EV X1/3): 0.0829 | Number of positives (MMP14) ([1]; EV X1/3): 218 | Expected value λ (MMP14) ([1]; EV X1/9): 0.0569 | Number of positives (MMP14) ([1]; EV X1/9): 162 | Expected value λ (MMP14) ([1]; EV X1/27): 0.0315 | Number of positives (MMP14) ([1]; EV X1/27): 78 | Expected value λ (MMP14) ([1]; EV X1/81): 0.0118 | Number of positives (MMP14) ([1]; EV X1/81): 19 | Expected value λ (MMP14) ([1]; EV X1/243): 0.0108 | Number of positives (MMP14) ([1]; EV X1/243): 20 | Expected value λ (MMP14) ([1]; EV X1/729): 0.0120 | Number of positives (MMP14) ([1]; EV X1/729): 22 | extracellular vesicles detected with MMP14 present in wells (particles) containing extracellular vesicles detected with at least any one of CD9, CD63, and CD81 ([1]; Example 33, concentration [a.u.] of x1, multiplex with resorufin β-D-galactopyranoside): 99.7% | Extracellular vesicle concentration [1, 8]: 0.0113 ×10^5/μg of protein | Particle Expected value λ [1, 8]: 0.00226 | Extracellular vesicle concentration [1, 9]: 1.4495 ×10^5/μg of protein | Particle Expected value λ [1, 9]: 0.2899 | Extracellular vesicle concentration [1, 10]: 0.0061 ×10^5/μg of protein | Particle Expected value λ [1, 10]: 0.00122 | Extracellular vesicle concentration [1, 11]: 1.5232 ×10^5/μg of protein | Particle Expected value λ [1, 11]: 0.3046 | Extracellular vesicle concentration ([2]; Example 27): 1.1×10^9 /μg of protein | Expected value λ [2, 12]: 0.000023 | Number of positives [2, 12]: 2 | Positive ratio [2, 12]: 0.000023 | Expected value λ [2, 13]: 0.004117 | Number of positives [2, 13]: 357 | Positive ratio [2, 13]: 0.004109 | Expected value λ [2, 14]: 0.03235 | Number of positives [2, 14]: 2,766 | Positive ratio [2, 14]: 0.03184 | λ at x1 in the approximation of FIG. 58 ([2]; Example 27, 5 h): 0.2767 | concentration of the extracellular vesicles that can be detected based on the MMP14 activity ([2]; Example 27, reaction solution 5 μg of protein/mL, 50 fL): 5.5e+09 mL⁻¹ | Expected value λ [2, 15]: 0.2767 | Number of positives [2, 15]: 20,982 | Positive ratio [2, 15]: 0.2417 | Particle Number of positives ([3]; Particle MS300C): 1,288 | Particle Number of positives ([3]; Particle Simoa): 1,234

[5-FAM]GRIGFLRTAK(TQ2)[OH] (5FAM-GRIGFLRTAK(TQ2)-OH) [Custom #1]
Expected value λ [2, 16]: 0.000656 | Number of positives [2, 16]: 38 | Positive ratio [2, 16]: 0.000656 | Expected value λ [2, 17]: 0.000725 | Number of positives [2, 17]: 42 | Positive ratio [2, 17]: 0.000724 | Expected value λ [2, 18]: 0.000985 | Number of positives [2, 18]: 57 | Positive ratio [2, 18]: 0.000984 | Expected value λ [2, 19]: 0.00207 | Number of positives [2, 19]: 119 | Positive ratio [2, 19]: 0.00206 | Expected value λ [2, 20]: 0.0137 | Number of positives [2, 20]: 789 | Positive ratio [2, 20]: 0.0136 | Expected value λ [2, 21]: 0.149 | Number of positives [2, 21]: 8,036 | Positive ratio [2, 21]: 0.139 | Expected value λ [2, 22]: 0.148 | Number of positives [2, 22]: 7,998 | Positive ratio [2, 22]: 0.138 | Expected value λ [2, 23]: 0.000069 | Number of positives [2, 23]: 4 | Positive ratio [2, 23]: 0.000069 | Expected value λ [2, 24]: 0.000328 | Number of positives [2, 24]: 19 | Positive ratio [2, 24]: 0.000328 | Expected value λ [2, 25]: 0.00141 | Number of positives [2, 25]: 81 | Positive ratio [2, 25]: 0.0014 | Expected value λ [2, 26]: 0.013 | Number of positives [2, 26]: 751 | Positive ratio [2, 26]: 0.0129 | λ at x1 in an approximation with BG correction ([2]; Example 21, 5 h): 0.120 | λ at x1 in an approximation without BG correction ([2]; Example 21, 5 h): 0.102 | extracellular vesicle concentration at which MMP14 activity was able to be detected in the microcompartment ([2]; Example 21, Simoa Discs, buffer (4), reporter 5 μM, 37° C., 5 h): ≥ 100 ng/mL | Extracellular vesicle concentration ([2]; Example 21, with BG correction): 2.4e+09 mL⁻¹ | extracellular vesicles in which MMP14 activity can be detected, contained in 1 μL of the extracellular vesicles (50 μg of protein in 50 μL of PBS) ([2]; Example 21, with BG correction): 2.4×10^8 | Extracellular vesicle concentration ([2]; Example 21, without BG correction): 2.0×10^8 /μg of protein | Extracellular vesicle concentration ([2]; Example 21, without BG correction, reaction solution 10 μg of protein/mL, 50 fL): 2e+09 mL⁻¹
